# According to the nanobody polyreactivity screen of Harvey et al. (2022):
# Experiment: yeast display, Sf9 membrane polyspecificity reagent, FACS + sequencing; frameworks hold sequencing errors
# Procedure, shortened: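 Genes from sorted yeast were amplified by colony PCR, read by MiSeq 2 × 250 sequencing and filtered on CDR length. These cells carried a synthetic nanobody library in Saccharomyces cerevisiae BJ5465 and were sorted by FACS into low and high (top ~1%) gates on anti-HA and streptavidin fluorescence. Polyreactivity is labelled according to the gate of origin.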
row,Sequence,polyreactivity (PSR sort gate)
1,QVQLVESGGGLVQAGGSLRLSCAASGSILDYYAMGWYRQAPGKERELVAAIRVNGGSTYYADSVKGRFTISRDNAKNTVYLQMNSLKPEDTAVYFCAARFSRFRRTRSEYDYWGQGTQVTVSS,high polyreactivity
2,QVQLVESGGCLVQAGGSLRLICAASGSTFLLNAMGWYRQAPGKVRELVAAITSSGRTNYADSVKGRFTISRDNAKNTVYLQMNSLKPEDTAVYYCNTRYSPGYQGTDVDYWRQGTQVTVSS,low polyreactivity
3,QVQLVESGGGLVQAGGSLRLSCAASGSIFYDYMGWYRQAPGKERELVAVISYSGSSTYYADSVKGRFTISRDNAKNTVYLQMNSLKPEDTAVYYCAARNVNGWDYDYWGQGTQVTVSS,low polyreactivity
4,QVQLVESGGGLVQAGGSLRLSCAASGRTFYFYAMGWYRQAPGKERELVASISWSGGRTYYADSVKGRFTISRDNAKNTVYLQMNSLKPEVTSVYYSAAALWTGYSWGQATQVTVSS,low polyreactivity
5,QVQLVESGGGLVQAGGRLRLSCAASGRIFYNYAMGWYRQAPGKERELVAAISGSGGSTYYADSVKGRFTISRDNAKNTVYLQMNSLKPEDTAVYYCSTSGPQYYSRNFDYWGQGTQVTVSS,low polyreactivity
6,QVQLVESGGGLVQAGRTLRLSCAPSGSIFSYYAMGWYRQAPGKERELVAAITSGGTTYYADSVKGRFTISRDNAKNTVYLQMNSVKPEDTAVYYCAADFVFRWYSYTGRWYSSYDYWGQGTQVTVSS,low polyreactivity
7,QVQLVESGGGLVQAGGSLRLSCAANTMGCYRQAPGKERELVAAINTGSSTYYADSVKGRFRISRDNAKNTVYLQMYCLKPEDTAVYYCNASYPPYFEYRTRQYNYWGQGTQVTVSS,low polyreactivity
8,QVQLVESGGGLVQAGRRLRLSCAASGRIFSRNAMGWYRQAPGKERELVAVITKRGGSTYYADSVKGRFTISRDNAKNTVYLQMNSLKPEDSAVYYCNRRPYTGLGRLDYWGQGTQVTVSS,high polyreactivity
9,QVQLVESGGRLVQAGGSLRLSCAPSGNTFALNAMGWYRQAPGKERELVAAISRRGASTYYADSVKRRFTISRDYAKNTVYIQMNSLKPEDNALDYCAADSGPRVGFFYWGQGTQVTVSS,high polyreactivity
10,QVHLVESGGGLVQAGGSLRLSCAASGYTFDSYAMGWYRQAPGKERELVAAISSGGRTKYADSVKGRFTISRDNAKNTVYLQMNSLKPEDTAFYYCAARRTFGVGILVGYWGQGTQVTVSS,high polyreactivity
11,QVQLVESGGGLVQAGGSLRLSCAASGSIVGRYAMGWYSQAPGQERELVAAISTGDSTYYADSVKGRFTISRDNAKNTVYLQMNSLKPEDTAVYYCNRRGRRVYDYWGQGTQVTVSS,high polyreactivity
12,QVQLVESGGGLVQAGGSLRLICAASGSTSWINAMGWYIQAPGKERELVAAISGRDGSTNYADSVKGRFTISRDNAKNTVYLLMNSLKPEDTAVYYCNANGRRFNRYGGDYWGLGTQVTVSS,high polyreactivity
13,QVQLVESGRGLVQAGGSLRLSCAASGSTFQSNAMGWYRQATGKERELVAAIDQSGGSTYYADSVKGRFTISRHNAKNTVYLQMNSLKPEDSAVYYCAAEYYYPQQPRKWYGYWGQGTQVTVSS,high polyreactivity
14,QVQLVESGGGLVQAGGSLRLSCAASGSTFSDNARGWYRQAPGKERELVAAIKETGGSTYYADSVKGRCTISRDNAKNTVYLQMNSLKPEDTAVYYCNADIDPYGATYAIEYDYWGQGTQVTVSS,low polyreactivity
15,QVQLVESGGGLVQAGGSLRLSCAASGLTFPPYAMGWYRQAPGKERELVATISFSTGNTYYADSVKGRFTISRDNAKNTVYLQLNSLKPEDTADYYCNKVFVLPYKFVAWFDSWGQGTQVTVSS,low polyreactivity
16,PVQLVESGGGLVQAGGSLLLSCAASGRIFSRNAMGWNIQAPGKERELVAAISRSGTSTYYADSVKGRFTSSRDNAKNTVYLQMNSLKPEETAVYYCAADYPAVISIRRYDYWGQGTQLTVSS,low polyreactivity
17,QVQLVESGGGLVQAGGSLRLSCAASGNIICGNAMGWYRQAPGKERELVAAISRRSGSTYYADSVKGRFTISRDNAKNTVYLQMNSLKPEDTAVYYCNTAGRVGTYDYWGQGTQVTVSS,high polyreactivity
18,QVQLVESGGGLVQAGGSLRLSCAASGSTFSEYVMGWYRQAPGKERELVAVITTGTSTNYADSVKGRFTISRDNAKNTVYLQMNSLKPEDTAVYYCNAEYLYGVRYHDYWNDFDYWGQGTQVTVSS,low polyreactivity
19,QVQLVESGGGLVQAGGSLRLSCAASGNTFYRNAMGWYRQAPGKERELVAGISNGGSTNYEDSVKGRFTISRDNAKNSVYLQMNSLKPEDTAVYYFAKDEPKVSRAFDYWGQGTQVNVSS,low polyreactivity
20,QVQLVESGGGLVQAGGSLRLSCAASGRTFLRYAMGWYRQAPGKEREFVAAISYSGSRTYYADSVKGRFTISRDTAKKTVYLQMNSLKPEDTAVYYCATDSDARVELAGYDYWGQGTQVTVSS,high polyreactivity
21,QVQLVESGGGLVQAGGSLRLSCAASGSIFGYNAMGWYRQAPGKERELVAAISLTTGSTYYADSVKGRFTISRDNAKNTVYLQMNSLKPEDTAVYYCAAVDADYYYWGQGTQVTVSS,high polyreactivity
22,QVHLVESGGGVVQAGGSRRLSCAASGSIIHDNAMGWYRQAPGKERELVADITWSGGSTYYADSVKGRFTISRDNAKITVYLQMNSLKPEETAVYDCAAGSGHWYYYDFDYWGQGTLVTVSS,high polyreactivity

row,Sequence,polyreactivity (PSR sort gate)
1,QVQLVESGGGLVQAGGSLRLSCAASGFIFVDNAMGWYRQAPGKERELVAAITYRGGSTYYADSVKGRFTISRDNAKNTVYLQMNSLKPEDTAVYYCNADYGDTFEYDYWGQGTQVTVSS,low polyreactivity
2,QVQLVESGGGLVQAGGSLRLSCAASGSTFEGNAMVWYRPAPGKERELVAAISSGGRTYYADSVKGRFTISRDNAKNTVYLQMNSLKPEDTAVYYCAAYVRRGFDWGQGTQVTVSS,high polyreactivity
3,QVQLVESGGGLVQAGGRLRLSCAASGFTFYYKAMGWYRQAPGKEWELVASITWSGGRTYYADSVKGRFTISRDNAKNTVYFQMNSLKPEDTAVYYCNAGYCIGLVAYGYWGQGTQVTVSS,low polyreactivity
4,QVQLVESGGRLVQAGGTLRLSCAASGNIFFVYDMGWYRQPPGKESELVAAISWSGGSTYADSVKGRFTISRDNAKNTVYLQMNSLKPEDTAVYYCAADVAYVEYDYWGQGTQVTVSS,low polyreactivity
5,QVQLVESGGGLVQAGGSLRLTCAASGLIFAENAMGWYRQAPGKERELVASITKSGGRTYYADSVKGRFTISRDNAKNTVYLQMNSLKPEDTAVYDCAAISYFPLRTRYERWFYYWGQGTQVTVSS,high polyreactivity
6,QVQLVESGGGLVQAGGSLRLSCAASGSTFWPYAMGWYRQAPGKERELVAAITSSGGSTYYADSVKGRFTISRDNAKNTVYLQRNSLKPEDTAVYYCAADWSNLGAYDYWGQGTQVTVSS,low polyreactivity
7,QVQLVESGGGLVQAGGSLRLSCAASGLIFYINAMGWYRQAPGKERELVAAISSGGSTNYADSVKGRFTISRDNAKNTVYLQMNSLKPEDTAVYYCARDAYLPRIADGDGRYELVDYWGQGTQVTVSS,low polyreactivity
8,QVQLVESGGGLVQAGGSLRLSCAASGRIFYLYVMGWYRQAPGKERELVAAISIGSTTNYADSVKGRFTISRDNAKNTVYLQMNSLKPEDTAVYYCNARDGPPFYDYWGQRTQVTVSS,low polyreactivity
9,QVQLVESGGGLVQAGGSLRLSCAASGFTFRNYAMGGYRQAPGKERELVAAISKSGGSTYYADSVKGRFTISRDNAKNTVYLQMNSLNPEDTAVYYCATDYLYVYGFEYYYWGQGTQVTVSS,high polyreactivity
10,EVQLVESGAGLVQAVGSLRLSCYASGFIFGYNAMGWYRQAHGKERELVAAISSGGGNTYYADSVKGRFTISRDNAKNTVYLQMNSLKPEDTAVYYCAAPDPRRPRRGDSWGQGTQVTVSS,low polyreactivity
11,QVQLVESGGGLVQAGGSLRLICAASGSIFRYYAMGWYRQAHGKERELLAAISYSGGSTYYADSVKGRFTISRDNAKNTVYLQMNSLKPEDTAVYYCAKGRHTTRASIAFNYWGQGTQVTVSS,high polyreactivity
12,QVQLVESGGGLVQAGGSLRLSCAASGGTFWKYPMGWTRQAPGKERELVAAITWSGSSTYYADSVKGRFTISRDNAKNTVYLQMNSLKPEDTAVFYCAARYQPRKGAHYGYWGQGTQVTVSS,high polyreactivity
13,QVQLQVSGGGLVQAGGSLRLSCAASGSIFLTSEMGWYRQAPCKERELVAANATGTSTNYADSVKGRFTISRDNAKNTVYLQMKSLKPEDTSVYYCAAGTQAHAFVVRPIEMDYWGQGTQVTVSS,low polyreactivity
14,QDQLVESGGGLVQAGGSLRLSCAASGFIFSSYAIGWYRQAPGKERELVAAITSGGSTNYADSVKGRFTLSRDNAKNTVYLQMNSLKPEDTAVYYCATVPGGSWFFHWWSTGGDDEYWGQGTQVTVSS,low polyreactivity
15,QVQLVESGGGLVQAGFSLRLSCAASGSILGSYVMGWCRQAPGKESELVAASSYSTSATYYADSVKGRFTISRDNAKNTVYLQMNSLKPEDPAVYYCNADLGSWYTWYDDWGQGTQVTVSS,high polyreactivity
16,QVQLVESGGGLVQAGGSLRLSCAASGLTFSSYTMGWYRQAHGKERELVAAINWNGGDTYYADSVKGRFTISRDNAKNTVYLQMHSLKPEDTAVYYCNADYPYFYRFTAEYDYCGQGTQVTVSS,low polyreactivity
17,QVQLVESGGGLVQAGGSLRLSCAASGSIFRAYAMGWYRQAPGKERELVAGITKSGGSTYYADSVKGRFTISRDNAKNTVYLQMNSLKAEDTAVYYCAAYRSRTYGYWGQGTQVTVSS,high polyreactivity
18,QVQLVESGGGVVQAGGSLRLSCAASGRTIWSNAMGWYRQAPGKERELVAAISRTGGRTYYADSVKGRFTISRDNAKNTVYLQMNSLKREDTAVYYCATGSGVYDYWGQGTQLTVSS,high polyreactivity
19,QVQLVESGGGLVQAGGSLRLSCAASGRIFVKYVMGWYRQAPGKERELVAAISSSGGRTYYADSVKGRFTISRDNAKNTVYLPMNSLKPEDTAVYYCNAVRRRSSLKLDSWGQGTQVTVSS,high polyreactivity
20,QVQLVESGGGLVQAGGSLRLSCAASGRTITRNALGWYRQAPGKERELVASINRGGSTNYADSVKGRFTISRDNAKNTDYLQMNSLNPEDTAVYYCYYHVYEQYFWVEYDYWGQGTQVTVSS,high polyreactivity
21,QVQLVESGGGLVQAAGSLRLSCAAYGGIFYWYAMGWYRQAPGKVRELVAVITLSGGSTDYADSVKGRFTISRDNAKNTVSLQMNSLKPEDTAFYYCAAEAYSYYPGTYEDDYWGQGTQVTVSS,low polyreactivity
